Test results as given in patent US20240115667A1 (priority 2020, published 2024).
Entries after “also recorded” stand apart in the source; their conditions may differ.

How the values were obtained:
[1] = system: SARS-CoV-2; type: cell-based; conditions: 400 μg/ml lactoferrin, 48 h after infection
[2] = system: SARS-CoV-2

| Molecule | Decrease of N-protein RNA copies [1] | Inhibition of SARS-CoV-2 infection in vitro [2] | Reduction of virus-induced cytotoxicity ([2]; MOI 0.3) |
| --- | --- | --- | --- |
| lactoferrin: lactoferrin from human milk; iron-binding ~80 kDa glycosylated protein (protein, UniProt P02788 20-710, looked up) Lactotransferrin: GRRRSVQWCAVSQPEATKCFQWQRNMRKVRGPPVSCIKRDSPIQCIQAIAENRADAVTLDGGFIYEAGLAPYKLRPVAAEVYGTERQPRTHYYAVAVVKKGGSFQLNELQGLKSCHTGLRRTAGWNVPIGTLRPFLNWTGPPEPIEAAVARFFSASCVPGADKGQFPNLCRLCAGTGENKCAFSSQEPYFSYSGAFKCLRDGAGDVAFIRESTVFEDLSDEAERDEYELLCPDNTRKPVDKFKDCHLARVPSHAVVARSVNGKEDAIWNLLRQAQEKFGKDKSPKFQLFGSPSGQKDLLFKDSAIGFSRVPPRIDSGLYLGSGYFTAIQNLRKSEEEVAARRARVVWCAVGEQELRKCNQWSGLSEGSVTCSSASTTEDCIALVLKGEADAMSLDGGYVYTAGKCGLVPVLAENYKSQQSSDPDPNCVDRPVEGYLAVAVVRRSDTSLTWNSVKGKKSCHTAVDRTAGWNIPMGLLFNQTGSCKFDEYFSQSCAPGSDPRSNLCALCIGDEQGENKCVPNSNERYYGYTGAFRCLAENAGDVAFVKDVTVLQNTDGNNNEAWAKDLKLADFALLCLDGKRKPVTEARSCHLAMAPNHAVVSRMDKVERLKQVLLHQQAKFGRNGSDCPDKFCLFQSETKNLLFNDNTECLARLHGKTTYEKYLGPQYVAGITNLKKCSTSPLLEACEFLRK | 28.0% | – | – |
| Unsaturated iron lactoferrin: lactoferrin that has been depleted of iron; also termed reduced iron lactoferrin or apolactoferrin (protein, UniProt P02788 20-710, looked up, iron-depleted apolactoferrin) Lactotransferrin: GRRRSVQWCAVSQPEATKCFQWQRNMRKVRGPPVSCIKRDSPIQCIQAIAENRADAVTLDGGFIYEAGLAPYKLRPVAAEVYGTERQPRTHYYAVAVVKKGGSFQLNELQGLKSCHTGLRRTAGWNVPIGTLRPFLNWTGPPEPIEAAVARFFSASCVPGADKGQFPNLCRLCAGTGENKCAFSSQEPYFSYSGAFKCLRDGAGDVAFIRESTVFEDLSDEAERDEYELLCPDNTRKPVDKFKDCHLARVPSHAVVARSVNGKEDAIWNLLRQAQEKFGKDKSPKFQLFGSPSGQKDLLFKDSAIGFSRVPPRIDSGLYLGSGYFTAIQNLRKSEEEVAARRARVVWCAVGEQELRKCNQWSGLSEGSVTCSSASTTEDCIALVLKGEADAMSLDGGYVYTAGKCGLVPVLAENYKSQQSSDPDPNCVDRPVEGYLAVAVVRRSDTSLTWNSVKGKKSCHTAVDRTAGWNIPMGLLFNQTGSCKFDEYFSQSCAPGSDPRSNLCALCIGDEQGENKCVPNSNERYYGYTGAFRCLAENAGDVAFVKDVTVLQNTDGNNNEAWAKDLKLADFALLCLDGKRKPVTEARSCHLAMAPNHAVVSRMDKVERLKQVLLHQQAKFGRNGSDCPDKFCLFQSETKNLLFNDNTECLARLHGKTTYEKYLGPQYVAGITNLKKCSTSPLLEACEFLRK | – | directly inhibited SARS-CoV-2 infection more effectively compared to hololactoferrin; also recorded: inhibited SARS-CoV-2 infection when administered alone | more effective than recombinant lactoferrin |
